Assay: soluble on expression in E. coli; label from the status in PepcDB or PDB records

| Sequence | soluble on expression in E. coli |
| --- | --- |
| MLKTAYQRSPKQELAKNTPFFNETDLKHSFIIDFENQEFIHHQAEPLNYLFYLIKGKAKILKTERNGRQSIVQFLTAGDLIGDLTLVQAETITKDVIALGETCCLAVPLAYAETVLKNKVLFMQQLSHYLGKKMLQRVDHFTTNQTYELSYRLAELLLVAANHEDVYKEKHTEIAEYLGVSYRHLIYTFKQFRERGFIQKQGTAYHINRLALHSFVQKMKS | not soluble |
| MLLDSIFFRTHPDWIVCCRFLQGVGTDREKREENGRKKTVKITIFSDCMLWANPISLCIRHRAVFNNRNLRMDFSSYTILCLNRLDAWIPAFGIPK | not soluble |
| MLLHLPNGDVLCVWFGGTQEGIADISIYMSRLVKDSGSWSKAAKLSEDATRSEQNPVLFLAPDNVLWLLYTAQKSGNQDTAIVRYRQSTDLGATWGEIGTLLDQPGTFIRQPITVLENGDWLLPVFYCRVQPGEKWVGNDDDSAVKISSDQGKTWREYPVPNSTGCVHMNITPLQDGTLLALYRSRWADFIYQSRSTDGGKTWSEPVATDLPNNNSSIQVTTLKNGHLALVFNHMSAADATDRRLSLYDELEHHHHHH | soluble |
| MLLIDKGHDIYKRNCPILQKKIEKCPPPAGKKDYAGCVPACSITNGFGGAGAYSDGKFNITSEFGGWMTDYLPASTVLELIRYVDEINLKHGATTSITDPMTDKVKEIERRAYAAGLKLLRAYVRHLGTEQNLAILQSIFEYLRERITMRFKTEVDDIVTERTEDGHEVKGVVLKNGETLTAEKVVIAPGRDGSVWLSKLLRKRRLRMINNQVDIGVRVETSNIVMQEINEHLYEGKFIFNTSVGTQVRTFCSNPSGHVVVENHSGIMLANGHAYKDPKLGSSNTNFALLVSHKFADPFDKPNEYAHEISRLANALSNGGIIVQKYGDILKGRRSTEKRIKEGFIEPTLKEAVPGDLGLVLPYNTMKSLIEMTEALNHVTPGLASEHTLFYGVEAKFYSARPKLNDRFETEIAGLYVGGDGAGITRGLAQASACGVWIARDIVEKLTRLEHHHHHH | not soluble |
| MLLLTRSPTAWHRLSQLKPPVLPGTLGGQALHLRSWLLSRQGPAETGGQGQPQGPGLRTRLLITGLFGAGLGGAWLALRAEKERLQQQKRTEALRQAAVGQGDFHLLDHRGRARCKADFRGQWVLMYFGFTHCPDICPDELEKLVQVVRQLEAEPGLPPVQPVFITVDPERDDVEAMARYVQDFHPRLLGLTGSTKQVAQASHSYRVYYNAGPKDEDQDYIVDHSIAIYLLNPDGLFTDYYGRSRSAEQISDSVRRHMAAFRSVLS | not soluble |
| MLLMRRFAFLTSSVYFKYIPIYSQYHYSSQFPINMNPKKVAQLPVHNKSTLPPQEIIDLFKITFLEELYPKDQDNEKSPLTEQIQAVKSDLYNRDYNAAFNNDSKRIAYCCRWSPSRATSYASVFAHFPELLKIIRCEIDDKDSNVLCIGGGAGGELVALASIFTLSRDFSSKFASALKIDNEVNKKPRNLNIQLVDIADWSTVVEKLTATIKSKWLYGDSEAESFNVNFTHKDCLQMTEPQDIKIYQGLDLITLLFTTNELFTQKKVESIKFLQRLNENCAPGCHLLILESAGSYSHITINNKKFPIQFLIDTILVGNRKDKGTTGPWSLVSENDSIWYRMDPKLDYSIPLENMRFFYRLYVKN | not soluble |
| MLLRKGTVYVLVIRADLVNAMVAHARRDHPDEACGVLAGPEGSDRPERHIPMTNAERSPTFYRLDSGEQLKVWRAMEDADEVPVVIYHSHTATEAYPSRTDVKLATEPDAHYVLVSTRDPHRHELRSYRIVDGAVTEEPVNVVEQYLEHHHHHH | not soluble |
| MLMATMTPWYLYLIRTADNALYTGITTDVARRYRQHQTGKGAKALRGKGELTLAFAAQVGDRSLALRIEYRIKQLTKRQKERLVTEREAFEALLSSLQTPVLKND | not soluble |
| MLNDGEVTPSRHEILSMVKKHSKSLGKTSLDEQDASDVEMDSNFWHGVFDVYFVRCMESRRRQDDDLLFFVRKLSCKSYGLTENEDAPAPYFVRRWAPKLDELLGESLAEVDWRKSFYLNMIAHTSFTVTVAICSNEALKTYQGSKDTKLSPIYKVVKTVYASPSRVNFHLDSKKEVETTPAYPEICFAVDDFDSTFDAVVLTDKDHCYCVLLNSHDGAAFPSATVKDSSDSNTNADPRTVKDPKVTLFSGFVSYQMVREAYEGGRNRFGSLLSLGHITGKADRLYMRGPGGRGEVEVAVSGVVDQSQVVLGPVSPMSSKKSIDLGSIFRKAASVASVAAKHAIAAATASYDEDEMFPLKCCLMSISLPWDTIAHDLLFKATPPVNME | soluble |
| MLNFLSISSEPKIKSLAIGKFDGLHLGHQALFKELKDPKALLIIEKKHYTKGYLTPLKYRAKLVGMPLFFVYLEEISQLNALDFLDLLKKKFPHLERLVVGYDFRFGHERQNDALFLKERFEKTIIVPEVKVQEISVHSKMIKLALSHGDLSLANKLLGRPYEVCGEVISDQGLGHKELAPTLNIKTKDFILPSFGVYASLVKIKDPIYQKSVSFIGNRLSTDQNFAIECHVLDTIIENPPQEIALRWVQKIRDNMRFSSLKELKNQIQQDILRAKEILR | not soluble |
| MLPNNQWQIPINNGLTHQENMAAHAAVMKLRVHDLQSIISQLSLRKPRPQKSEHQKVVVESLRDPHHARQIYQMVISLIFSSLQASNFPNGNYEMQKRPATTSQVRSHPYVLPSRSGASNHLVNHHYQQQQQQQPQPHNLLHQQMMASHHSHLQQQHHPSTVRWLTPELLEEQLRGSMRYGAPAAAAATNAPLHSSFPNHGRSSQQSLQKSEKSNRPKKMYADNFEPLPLPFYDVISVLLKPVELHSSDSPTLKQTKQLQFPFLLTAEHISKISYRADVTPLPRYELQLRFFNLTEPVQGPQKDDFPLNCYARVDDSVVQLPNVIPTNKTNAEPKRPSRPVNITSNMNRYKKEHTVAVEWLADKRVWAAGVYFVHRVNSDILFKRLNQNVSRHRSLEVTKQEVIKKLSGGEDDIAMDRLNISLLDPLCKTRMTTPSRCQDCTHLQCFDLLSYLMMNEKKPTWQCPVCSSNCPYDRLIVDDYFLDMLAKVDKNTTEVELKEDGSYDVIKEEAFCISDDDDDDVVPATVNGTASCSSTNGNGLANEAAKKKPADDDIITLSDDDDEELNRGIMNSLNDSFSPGRHTASAELAAQKTPPQQKKKTKDDDIEIITLDDTPPRPVAASANLPMRQMSQQNQMPVGSSPSGMASTQMGMNEGASKTIRDALNKIGEQSANSSTQSSPLVQLHHTTHPLNFAQSSYMNPSSGSQTPTSQYGYSPMINQAPHFQMQNGLIGRNNQMVHMQQHHLQQQQQQQQSPQIMSPSFYAQQQMSNGGAFAYYPPQYPQQQYRQN | not soluble |
| MLRFTNCSCKTFVKSSYKLNIRRMNSSFRTETDAFGEIHVPADKYWGAQTQRSFQNFKIGGARERMPLPLVHAFGVLKKSAAIVNESLGGLDPKISKAIQQAADEVASGKLDDHFPLVVFQTGSGTQSNMNANEVISNRAIEILGGKIGSKQVHPNNHCNQSQSSNDTFPTVMHIAASLQIQNELIPELTNLKNALEAKSKEFDHIVKIGRTHLQDATPLTLGQEFSGYVQQVENGIQRVAHSLKTLSFLAQGGTAVGTGLNTKPGFDVKIAEQISKETGLKFQTAPNRFEALAAHDAIVECSGALNTLACSLFKIAQDIRYLGSGPRCGYHELMLPENEPGSSIMPGKVNPTQNEALTQVCVQVMGNNAAITFAGSQGQFELNVFKPVMIANLLNSIRLITDAAYSFRVHCVEGIKANEPRIHELLTKSLMLVTALNPKIGYDAASKVAKNAHKKGITLKESALELGVLTEKEFDEWVVPEHMLGPK | soluble |
| MLRKLSKFSNKGEVFMGLLEGKRALITGVANERSIAYGIAKSFHREGAQLAFTYATPKLEKRVREIAKGFGSDLVVKCDVSLDEDIKNLKKFLEENWGSLDIIVHSIAYAPKEEFKGGVIDTSREGFKIAMDISVYSLIALTRELLPLMEGRNGAIVTLSYYGAEKVVPHYNVMGIAKAALESTVRYLAYDIAKHGHRINAISAGPVKTLAAYSITGFHLLMEHTTKVNPFGKPITIEDVGDTAVFLCSDWARAITGEVVHVDNGYHIMGVFGREEEIKKEVYGD | soluble |
| MLRLDTRFLPGFPEALSRHGPLLEEARRRLLAKRGEPGSMLGWMDLPEDTETLREVRRYREANPWVEDFVLIGIGGSALGPKALEAAFNESGVRFHYLDHVEPEPILRLLRTLDPRKTLVNAVSKSGSTAETLAGLAVFLKWLKAHLGEDWRRHLVVTTDPKEGPLRAFAEREGLKAFAIPKEVGGRFSALSPVGLLPLAFAGADLDALLMGARKANETALAPLEESLPLKTALLLHLHRHLPVHVFMVYSERLSHLPSWFVQLHDESLGKVDRQGQRVGTTAVPALGPKDQHAQVQLFREGPLDKLLALVIPEAPLEDVEIPEVEGLEAASYLFGKTLFQLLKAEAEATYEALAEAGQRVYALFLPEVSPYAVGWLMQHLMWQTAFLGELWEVNAFDQPGVELGKVLTRKRLAG | soluble |
| MLRLLLRHHFHCLLLCAVWATPCLASPWSTLTANQNPSPPWSKLTYSKPHDAATFYCPFLYPSPPRSPLQFSGFQQVSTGPECRNETLYLLYNREGQTLVERSSTWVKKVIWYLSGRNQTILQRMPQTASKPSDGNVQISVEDAKIFGAHMVPKQTKLLRFVVNDGTRYQMCVMKLESWAHVFRDYSVSFQVRLTFTEANNQTYTFCTHPNLIVLEHHHHHH | not soluble |
| MLRLSAPGQLDDDLCLLGDVQVPVFLLRLGEASWALVEGGISRDAELVWADLCRWVADPSQVHYWLITHKHYDHCGLLPYLCPRLPNVQVLASERTCQAWKSESAVRVVERLNRQLLRAEQRLPEACAWDALPVRAVADGEWLELGPRHRLQVIEAHGHSDDHVVFYDVRRRRLFCGDALGEFDEAEGVWRPLVFDDMEAYLESLERLQRLPTLLQLIPGHGGLLRGRLAADGAESAYTECLRLCRRLLWRQSMGESLDELSEELHRAWGGQSVDFLPGELHLGSMRRMLEILSRQALPLD | not soluble |
| MLRREFGPKYTAKINEAEENWQARAEAIKKGKKQNTWDLFEERGYVKDTAGTKEHIAELMRTRRIGAYVGIDPTAPSLHVGHLLPLMPLFWMYLEGYKAFTLIGGSTAKIGDPTGRLKSRDHLSSSDATMNMTKIHYQLKKLWENVDTQMRARGYEADWARKRGIVNNNHWWNKQPMLEVLRRVGHALRIGPMLSRDTVKNKMTQGDGVSFAEFTYPIMQGWDWFELFYQQGVQMQIGGSDQYGNIISGLEVVKAARESEPDPQERKYVTPKTALDECVGFTVPLLTDSSGAKFGKSAGNAIWLDPYQTSVFDFYGYFVRRSDQEVENLLKLFTFMPISEITKTMEEHIKDPSKRVAQHTLAREVVTLVHGKQEASAAEDQHRMMYTGQMTI | soluble |
| MLRSLLKSRQVICGLRELRALSTSQGNESIIDFVDTVTETSEAQNQSFASLLRNSKFMQLGDFNGRLVVGKIAQRVQEDVYIDFGLKFNAVCKVPALNSEAYRSGARVLIRLIDPELSERFLGSKHDLTLLEADAVLVRLLSNVPRQQQQRQKPRGATEEEAPAAPETPAAH | not soluble |
| MLRSLSTISKSTVRCMSLTSKMAAEQPSKQEVDDLFAEKPQHHNPEQRRHAYSVNKVELVGGVALDPLYKTGRNGKPYLIFNIITNSYFKQQDGTTLDQTERHAVSVFGKQAEILSKTIKKGSRLMVQGRLHYSGGQKDEQGNRTQRNTYIIAQTVQPLARAARENPDQH | not soluble |

From the DeepSol protein solubility set
